# Numbered stars: 1 amine (or outer) side, 2 acyl side, 3 side chain; on linkers, the order of the positions; unused ones are H or OH. Bridge positions count the residues as written; N and C are the ends. Ends that are not written are not given here. * marks the point of attachment. Ttds = 1,13-diamino-4,7,10-trioxatridecan-succinamic acid, NCCCOCCOCCOCCCNC(=O)CCC(=O)*; tMeBn(DOTA-AET) = Cys-Cys bridge (thioethers) carrying DOTA-AET; tMeBn(DOTA-PP) = Cys-Cys bridge (thioethers) carrying DOTA-PP; DOTA = O=C(O)CN1CCN(CC(=O)O)CCN(CC(=O)*)CCN(CC(=O)O)CC1; mXylylene = c1cc(C[*:1])cc(C[*:2])c1; tMeBn(LuDOTA-AET) = not defined here; 2Lut = Cys-Cys bridge (thioethers); 3Lut = Cys-Cys bridge (thioethers); Pentanesulfonyl = CCCCCS(=O)(=O)*; PentylNH‑urea = CCCCCNC(=O)*; Hexanoyl = CCCCCC(=O)*
# T1: Recombinant human FAP (R&D systems, #3715-SE) (human)
# T1 sequence: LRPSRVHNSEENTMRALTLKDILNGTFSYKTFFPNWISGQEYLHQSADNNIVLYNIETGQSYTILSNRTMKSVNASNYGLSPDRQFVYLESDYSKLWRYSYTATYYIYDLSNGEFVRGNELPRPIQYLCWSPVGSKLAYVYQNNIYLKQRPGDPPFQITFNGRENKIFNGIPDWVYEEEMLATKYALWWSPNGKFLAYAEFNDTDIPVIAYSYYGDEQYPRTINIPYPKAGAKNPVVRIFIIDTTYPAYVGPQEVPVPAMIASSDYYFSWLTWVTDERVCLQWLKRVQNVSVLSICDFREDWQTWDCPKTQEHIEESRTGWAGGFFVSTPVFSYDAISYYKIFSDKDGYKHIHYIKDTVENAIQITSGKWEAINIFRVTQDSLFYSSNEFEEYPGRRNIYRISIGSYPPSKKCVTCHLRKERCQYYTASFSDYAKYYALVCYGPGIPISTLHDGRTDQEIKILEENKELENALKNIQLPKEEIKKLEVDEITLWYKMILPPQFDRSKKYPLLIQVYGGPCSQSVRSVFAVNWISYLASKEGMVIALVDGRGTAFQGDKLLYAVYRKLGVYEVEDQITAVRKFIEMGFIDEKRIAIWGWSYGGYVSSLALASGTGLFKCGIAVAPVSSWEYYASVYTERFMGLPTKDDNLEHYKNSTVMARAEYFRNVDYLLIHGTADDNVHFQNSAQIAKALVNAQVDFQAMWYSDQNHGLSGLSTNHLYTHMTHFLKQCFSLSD
# Target: T1, Recombinant human FAP (R&D systems, #3715-SE) (human)
# Assay: not given
# Conditions: not given
row,pIC50 Category (Activity) [pIC50],Binder
1,> 8,Hexanoyl-CPPTEFCDHFRD-NH2 (linker 1-7 via mXylylene; SMILES CCCCCC(=O)N[C@H]1CSCc2cccc(c2)CSC[C@@H](C(=O)N[C@@H](CC(=O)O)C(=O)N[C@@H](Cc2c[nH]cn2)C(=O)N[C@@H](Cc2ccccc2)C(=O)N[C@@H](CCCNC(=N)N)C(=O)N[C@@H](CC(=O)O)C(N)=O)NC(=O)[C@H](Cc2ccccc2)NC(=O)[C@H](CCC(=O)O)NC(=O)[C@H]([C@@H](C)O)NC(=O)[C@@H]2CCCN2C(=O)[C@@H]2CCCN2C1=O) [Hex-[Cys(3MeBn)-Pro-Pro-Thr-Glu-Phe-Cys]-Asp-His-Phe-Arg-Asp-NH2]
2,> 8,Hexanoyl-CPPTQFCD-NH2 (linker 1-7 via tMeBn(DOTA-AET)) [Hex-[Cys(tMeBn(DOTA-AET))-Pro-Pro-Thr-Gln-Phe-Cys]-Asp-NH2]
3,> 8,Hexanoyl-CPPTEFC-NH2 (linker 1-7 via tMeBn(DOTA-AET)) [Hex-[Cys(tMeBn(DOTA-AET))-Pro-Pro-Thr-Glu-Phe-Cys]-NH2]
4,> 8,Pentanesulfonyl-CPPTQFCD-NH2 (linker 1-7 via tMeBn(DOTA-PP)) [Pentyl-SO2-[Cys(tMeBn(DOTA-PP))-Pro-Pro-Thr-Gln-Phe-Cys]-Asp-NH2]
5,> 8,Hexanoyl-CPPTQFCD-NH2 (linker 1-7 via 2Lut) [Hex-[Cys(2Lut)-Pro-Pro-Thr-Gln-Phe-Cys]-Asp-NH2]
6,> 8,Hexanoyl-CPPTQFCD-NH2 (linker 1-7 via tMeBn(InDOTA-PP); also: In-DOTA complex) [Hex-[Cys(tMeBn(InDOTA-PP))-Pro-Pro-Thr-Gln-Phe-Cys]-Asp-NH2]
7,> 8,{PentylNH‑urea}-CPPTQFCD-NH2 (linker 1-7 via mXylylene; SMILES CCCCCNC(=O)N[C@H]1CSCc2cccc(c2)CSC[C@@H](C(=O)N[C@@H](CC(=O)O)C(N)=O)NC(=O)[C@H](Cc2ccccc2)NC(=O)[C@H](CCC(N)=O)NC(=O)[C@H]([C@@H](C)O)NC(=O)[C@@H]2CCCN2C(=O)[C@@H]2CCCN2C1=O) [PentylNH-urea-[Cys(3MeBn)-Pro-Pro-Thr-Gln-Phe-Cys]-Asp-NH2]
8,> 8,Pentanesulfonyl-CPPTQFCD-NH2 (linker 1-7 via mXylylene; SMILES CCCCCS(=O)(=O)N[C@H]1CSCc2cccc(c2)CSC[C@@H](C(=O)N[C@@H](CC(=O)O)C(N)=O)NC(=O)[C@H](Cc2ccccc2)NC(=O)[C@H](CCC(N)=O)NC(=O)[C@H]([C@@H](C)O)NC(=O)[C@@H]2CCCN2C(=O)[C@@H]2CCCN2C1=O) [Pentyl-SO2-[Cys(3MeBn)-Pro-Pro-Thr-Gln-Phe-Cys]-Asp-NH2]
9,> 8,Hexanoyl-CPPTQFCD-NH2 (linker 1-7 via 3Lut) [Hex-[Cys(3Lut)-Pro-Pro-Thr-Gln-Phe-Cys]-Asp-NH2]
10,> 8,Hexanoyl-CPPTQFCD-NH2 (linker 1-7 via tMeBn(EuDOTA-PP); also: Eu-DOTA complex) [Hex-[Cys(tMeBn(EuDOTA-PP))-Pro-Pro-Thr-Gln-Phe-Cys]-Asp-NH2]
11,> 8,CPPTQFCD (N-terminal Hex (hexanoyl); Cys1-Cys7 bridged by tMeBn(DOTA-AET) (thioethers); D-Asp8 (asp); C-terminal amide) [Hex-[Cys(tMeBn(DOTA-AET))-Pro-Pro-Thr-Gln-Phe-Cys]-asp-NH2]
12,> 8,Hexanoyl-CPPTQFCD-NH2 (linker 1-7 via tMeBn(LuDOTA-PP); also: Lu-DOTA complex) [Hex-[Cys(tMeBn(LuDOTA-PP))-Pro-Pro-Thr-Gln-Phe-Cys]-Asp-NH2]
13,> 8,Hexanoyl-CPPTQFCS-OH (linker 1-7 via tMeBn(DOTA-AET)) [Hex-[Cys(tMeBn(DOTA-AET))-Pro-Pro-Thr-Gln-Phe-Cys]-Ser-OH]
14,> 8,{DOTA-Ttds}-LCPPTEFCDHFRD-NH2 (linker 2-8 via mXylylene) [DOTA-Ttds-Leu-[Cys(3MeBn)-Pro-Pro-Thr-Glu-Phe-Cys]-Asp-His-Phe-Arg-Asp-NH2]
15,> 8,Hexanoyl-CPPTQFCD-OH (linker 1-7 via tMeBn(DOTA-AET)) [Hex-[Cys(tMeBn(DOTA-AET))-Pro-Pro-Thr-Gln-Phe-Cys]-Asp-OH]
16,> 8,Hexanoyl-CPPTQFCD-NH2 (linker 1-7 via tMeBn(GaDOTA-PP)) [Hex-[Cys(tMeBn(GaDOTA-PP))-Pro-Pro-Thr-Gln-Phe-Cys]-Asp-NH2]
17,> 8,Hexanoyl-CPPTQFCD (linker 1-7 via mXylylene; not fully specified (C-terminus); printed as Hex-[Cys(3MeBn)-Pro-Pro-Thr-Gln-Phe-Cys]-Asp-Ttds-Ape(DOTA)) [Hex-[Cys(3MeBn)-Pro-Pro-Thr-Gln-Phe-Cys]-Asp-Ttds-Ape-NH-DOTA']
18,> 8,Hexanoyl-CPPTQFCD-NH2 (linker 1-7 via mXylylene; SMILES CCCCCC(=O)N[C@H]1CSCc2cccc(c2)CSC[C@@H](C(=O)N[C@@H](CC(=O)O)C(N)=O)NC(=O)[C@H](Cc2ccccc2)NC(=O)[C@H](CCC(N)=O)NC(=O)[C@H]([C@@H](C)O)NC(=O)[C@@H]2CCCN2C(=O)[C@@H]2CCCN2C1=O) [Hex-[Cys(3MeBn)-Pro-Pro-Thr-Gln-Phe-Cys]-Asp-NH2]
19,> 8,Ac-CPPTEFCDHFRD-NH2 (linker 1-7 via mXylylene; SMILES CC(=O)N[C@H]1CSCc2cccc(c2)CSC[C@@H](C(=O)N[C@@H](CC(=O)O)C(=O)N[C@@H](Cc2c[nH]cn2)C(=O)N[C@@H](Cc2ccccc2)C(=O)N[C@@H](CCCNC(=N)N)C(=O)N[C@@H](CC(=O)O)C(N)=O)NC(=O)[C@H](Cc2ccccc2)NC(=O)[C@H](CCC(=O)O)NC(=O)[C@H]([C@@H](C)O)NC(=O)[C@@H]2CCCN2C(=O)[C@@H]2CCCN2C1=O) [Ac-[Cys(3MeBn)-Pro-Pro-Thr-Glu-Phe-Cys]-Asp-His-Phe-Arg-Asp-NH2]
20,> 8,Hexanoyl-CPPTQFCD (linker 1-7 via mXylylene; not fully specified (C-terminus); printed as Hex-[Cys(3MeBn)-Pro-Pro-Thr-Gln-Phe-Cys]-Asp-Ape(DOTA)) [Hex-[Cys(3MeBn)-Pro-Pro-Thr-Gln-Phe-Cys]-Asp-Ape-NH-DOTA']

# Target: human fibroblast activation protein (FAP) on FAP-expressing human WI-38 fibroblasts (human)
# Assay: competition FACS, WI-38 cells, vs Cy5-labeled compound; A: pIC50 >8.0
# Conditions: remark: other sources report otherwise
row,pIC50 Category (FACS) [pIC50],Binder
1,> 8,Hexanoyl-CPPTQFC-NH2 (linker 1-7 via tMeBn(DOTA-AET)) [Hex-[Cys(tMeBn(DOTA-AET))-Pro-Pro-Thr-Gln-Phe-Cys]-NH2]
2,> 8,Hexanoyl-CPPTQFC-OH (linker 1-7 via tMeBn(InDOTA-AET); also: In-DOTA complex) [Hex-[Cys(tMeBn(InDOTA-AET))-Pro-Pro-Thr-Gln-Phe-Cys]-OH]
3,> 8,Hexanoyl-CPPTQFC-OH (linker 1-7 via tMeBn(DOTA-AET)) [Hex-[Cys(tMeBn(DOTA-AET))-Pro-Pro-Thr-Gln-Phe-Cys]-OH]
4,> 8,"Hexanoyl-CPPTQFC-OH (linker 1-7 via tMeBn(LuDOTA-AET); reading uncertain; also: Lu-DOTA complex, printed as Hex-[Cys(tMeBn(LuDOTA-AET))-Pro-Pro-Thr-Gln-Phe-Cys]-OH) [Hex-[Cys(tMeBn(LuDOTA-AET))-Pro-Pro-Thr-Gln-Phe-Cys]-OH]"
5,> 8,Hexanoyl-CPPTQFC-OH (linker 1-7 via tMeBn(EuDOTA-AET); also: Eu-DOTA complex) [Hex-[Cys(tMeBn(EuDOTA-AET))-Pro-Pro-Thr-Gln-Phe-Cys]-OH]
6,> 8,Pentanesulfonyl-CPPTQFC-OH (linker 1-7 via tMeBn(DOTA-AET)) [Pentyl-SO2-[Cys(tMeBn(DOTA-AET))-Pro-Pro-Thr-Gln-Phe-Cys]-OH]
